According to PMC6795808, “N6-methyladenosine modification of circNSUN2 facilitates cytoplasmic export and stabilizes HMGA2 to promote colorectal liver metastasis”:

Experiments:
YTHDC1 WT = YTHDC1 WT (UniProt Q96MU7 1-727); assay: EMSA; LightShift Chemiluminescent RNA EMSA kit binding buffer (composition not stated), 30 min, room temperature; 6% native PAGE, 0.5x TBE; supershift preincubation with antibody 20 min at 0 C; settings: protein: recombinant; tags: FLAG; label: 3'-biotin
IGF2BP2 WT = IGF2BP2 WT (UniProt Q9Y6M1 1-599); assay: EMSA; dose-dependent; confirmed by supershift; LightShift Chemiluminescent RNA EMSA kit binding buffer (composition not stated), 30 min, room temperature; 6% native PAGE, 0.5x TBE; supershift preincubation with antibody 20 min at 0 C; settings: protein: recombinant; tags: FLAG; label: 3'-biotin
IGF2BP2 WT, sequence (Q9Y6M1 whole entry): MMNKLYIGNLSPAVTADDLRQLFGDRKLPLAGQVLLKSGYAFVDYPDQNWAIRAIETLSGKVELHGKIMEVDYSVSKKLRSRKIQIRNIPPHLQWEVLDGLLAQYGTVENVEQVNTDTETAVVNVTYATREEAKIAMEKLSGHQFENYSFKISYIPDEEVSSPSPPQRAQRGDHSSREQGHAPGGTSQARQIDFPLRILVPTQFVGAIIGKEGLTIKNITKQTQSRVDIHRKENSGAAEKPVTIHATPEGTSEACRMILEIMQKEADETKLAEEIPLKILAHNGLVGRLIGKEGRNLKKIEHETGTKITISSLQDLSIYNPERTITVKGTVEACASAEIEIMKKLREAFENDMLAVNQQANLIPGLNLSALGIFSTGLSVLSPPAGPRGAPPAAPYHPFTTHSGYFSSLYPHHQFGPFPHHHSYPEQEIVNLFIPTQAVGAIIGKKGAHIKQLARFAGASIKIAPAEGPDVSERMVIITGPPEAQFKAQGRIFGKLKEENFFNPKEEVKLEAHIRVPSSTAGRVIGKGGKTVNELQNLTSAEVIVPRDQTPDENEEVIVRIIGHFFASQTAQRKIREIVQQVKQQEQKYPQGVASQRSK

B1: circNSUN2-m6A wild type (ssRNA)
RNA: AUAAGGUAUCCUGAAGAACU
modifications: m6A not marked in the printed sequence; whether A18 is methylated in the probe is unclear
binding result (YTHDC1 WT): binds

CCUCAUCAUAAGGUAUCCUG (ssRNA) [circNSUN2 wild type (IGF2BP2 probe)]
binding result (IGF2BP2 WT): binds
